{"source": "paper PMC7895908", "test_in_all_cases": "ITC", "key": {"[1]": {"target": "mEGFP (monomeric enhanced GFP) (UniProt P42212)"}, "[2]": {"target": "mVenus (UniProt P42212)"}, "[3]": {"target": "YFP (UniProt P42212)"}, "[4]": {"target": "sfGFP (super folder GFP) (UniProt P42212)"}}}
{"sequence": "GGGAGCUUCUGGACUGCGAUGGGAGCACGAAACGUCGUGGCGCAAUUGGGUGGGGAAAGUCCUUAAAAGAGGGCCACCACAGAAGCUCCC [free RNA aptamer against GFP family]", "values": [{"measurement": "Kd", "setting": "[1]", "value": 5, "unit": "nM"}, {"measurement": "Kd", "setting": "[2]", "value": 5, "unit": "nM"}, {"measurement": "Kd", "setting": "[3]", "value": 4, "unit": "nM"}, {"measurement": "Kd", "setting": "[4]", "value": 13, "unit": "nM"}]}
